In patent publication US12018084B2, “Anti-CXCR2 antibodies and uses thereof” (Cephalon LLC, priority 2018, dated 2024):

T1: native human CXCR2 expressed by human neutrophils (Homo sapiens, UniProt P25025)
T1 construct: native human CXCR2 expressed by human neutrophils; endogenous in cells; host or cells: human peripheral blood cells (buffy coat, PBMC-enriched fractions, anticoagulated blood): neutrophils, monocytes
T1 sequence (P25025 1-360): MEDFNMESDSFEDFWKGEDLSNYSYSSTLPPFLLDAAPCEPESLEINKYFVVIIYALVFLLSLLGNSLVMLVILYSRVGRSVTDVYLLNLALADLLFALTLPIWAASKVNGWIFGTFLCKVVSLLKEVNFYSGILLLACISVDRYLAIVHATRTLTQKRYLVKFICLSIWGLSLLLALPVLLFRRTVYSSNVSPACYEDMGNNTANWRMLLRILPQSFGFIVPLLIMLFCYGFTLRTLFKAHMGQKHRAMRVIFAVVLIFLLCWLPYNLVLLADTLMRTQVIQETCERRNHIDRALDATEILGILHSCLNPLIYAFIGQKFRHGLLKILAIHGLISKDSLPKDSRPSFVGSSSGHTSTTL

T2: Human CXCR2 (Homo sapiens, UniProt P25025)
T2 sequence (P25025 1-360): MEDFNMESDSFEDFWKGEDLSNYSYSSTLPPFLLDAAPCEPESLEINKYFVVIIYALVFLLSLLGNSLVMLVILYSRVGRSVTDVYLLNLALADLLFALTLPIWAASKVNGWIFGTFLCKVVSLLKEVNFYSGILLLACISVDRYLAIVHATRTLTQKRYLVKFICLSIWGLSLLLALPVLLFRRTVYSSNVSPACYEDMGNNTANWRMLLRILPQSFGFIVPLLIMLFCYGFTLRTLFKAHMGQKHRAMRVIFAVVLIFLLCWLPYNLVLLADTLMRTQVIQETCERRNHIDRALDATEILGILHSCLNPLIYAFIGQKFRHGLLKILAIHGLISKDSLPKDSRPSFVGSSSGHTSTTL


How the values were obtained:
[1] = test system: native cynomolgus CXCR2 expressed by cynomolgus neutrophils; experiment: Flow cytometry binding to cynomolgus blood neutrophils; parameters: species or system cynomolgus monkey; settings: FIG. 2, MFI
Description: (§1) Whole human buffy coat, PBMC enriched fractions prepared from human peripheral blood buffy coat or cynomolgus monkey whole blood was used for analysis of antibody binding activity by flow cytometry. Briefly, blood was untreated or diluted 1:1 in sterile filtered room temperature phosphate-buffered saline (PBS). 30 mL samples were layered over 15 mL Lymphoprep™ (Stem Cell Technologies, cat #07851). Peripheral blood mononuclear cells (PBMC) were enriched by room temperature centrifugation at 700 g for 30 minutes with no braking. The PBMC layer was isolated and cells washed in PBS containing 2 mM EDTA with low speed centrifugation at 200 g, to remove platelet contamination. Whole blood or PBMC enriched cell fractions were resuspended in red blood cell lysing solution (BioLegend, 420301). Viable cell counts were determined and cells resuspended at 1×10^7 cells per mL in FACS buffer (1×PBS+0.5% (w/v) BSA+2 mM EDTA pH 7.2).
Flow cytometry binding assays using whole blood or PBMC enriched preparations: Binding assays to detect CXCR2 on blood neutrophil populations using test antibodies were performed essentially as described for assays using transiently transfected Expi293F™ cells. Binding of antibodies to human CXCR2 on the surface of the neutrophils was measured using anti-CXCR2 antibody directly conjugated to the fluorophore allophycocyanin (APC). Matched isotype control antibodies were included for comparison. Cells were incubated with lineage specific antibodies and 2 μg/ml of APC conjugated anti-CXCR2 antibody or isotype control prepared in ice cold 3% BSA/PBS for a minimum of 30 minutes at 4° C. The commercial anti-CXCR2 antibody (clone 48331 (R&D Systems FAB331A)) was used as a positive control. […] The level of fluorescence on the cell surface was measured by flow cytometry. Using this method, test anti-CXCR2 antibodies were detected binding neutrophils from both human and cynomolgus monkey.

[2] = molecular target: T1, native human CXCR2 expressed by human neutrophils; experiment: Flow cytometry binding to human blood cells (neutrophils, monocytes, PBMC preparations); settings: FIG. 2, MFI
Description: as §1
Flow cytometry binding assays using whole blood or PBMC enriched preparations: Binding assays to detect CXCR2 on blood neutrophil populations using test antibodies were performed essentially as described for assays using transiently transfected Expi293F™ cells. Binding of antibodies to human CXCR2 on the surface of the neutrophils was measured using anti-CXCR2 antibody directly conjugated to the fluorophore allophycocyanin (APC). Matched isotype control antibodies were included for comparison. Cells were incubated with lineage specific antibodies and 2 μg/ml of APC conjugated anti-CXCR2 antibody or isotype control prepared in ice cold 3% BSA/PBS for a minimum of 30 minutes at 4° C. The commercial anti-CXCR2 antibody (clone 48331 (R&D Systems FAB331A)) was used as a positive control. Neutrophil populations were identified by characteristic granularity and size, and positive binding of commercially available antibodies against CD10 (Biolegend, clone H110a, catalogue number 312204). Cells were washed and fixed (BioLegend Fixation buffer, 420801) prior to analysis. The level of fluorescence on the cell surface was measured by flow cytometry. Using this method, test anti-CXCR2 antibodies were detected binding neutrophils from both human and cynomolgus monkey.
To further characterize the anti-CXCR2 antibody BKO-4A8-101c, the ability to bind CXCR2 on neutrophils was tested on anticoagulated human blood. Binding was measured using BKO-4A8-101c directly conjugated to fluorophore APC. Matched isotype control antibodies conjugated to APC were included for comparison. Cells were incubated with lineage-specific antibodies and 2 μg/mL of APC conjugated anti-CXCR2 antibody or isotype control. The level of fluorescence on the cell surface was measured by flow cytometry. […]

Human CXCR2 = molecular target: T2, Human CXCR2; experiment: Flow cytometry binding assay, Expi293F cells transiently transfected with human CXCR2; parameters: host or cells: Expi293F cells, vector pTT5; settings: for Fold change in binding relative to BKO-4A8: point variant chain co-expressed with parental other chain
Description: For each 10 mL transfection, lipid-DNA complexes were prepared by diluting 10 μg of plasmid DNA in Opti-MEM™ I Reduced Serum Medium (Cat. no. 31985-062) to a total volume of 1.0 mL. 54 μL of ExpiFectamine™ 293 Reagent was diluted in Opti-MEM™ I medium to a total volume of 1.0 mL. Transfections were carried out according to manufacturer's instructions. The cells were incubated in a 37° C. incubator with a humidified atmosphere of 8% CO2 in air on an orbital shaker rotating at 200 rpm. Approximately 18-24 hours post-transfection, the cell viability was evaluated and transfected cells harvested for use.
Harvested cells were resuspended in FACS buffer (1×PBS+0.5% (w/v) bovine serum albumin (BSA)+2 mM EDTA pH 7.2). Approximately 2×10^5 cells were added per well in a 96-well round-bottomed plate. Cells were pelleted by centrifugation at 400 g for 5 mins at 4° C. and supernatants discarded. 25 μL of each test antibody or control antibody was added to the cells and incubated for 30 minutes at 4° C. Cells were washed twice in 100 μL FACS buffer followed by centrifugation at 400 g for 5 mins at 4° C.
For detection, 50 μL of secondary antibody (Table 2) was added to relevant samples. Commercially available antibodies that bound to transfected CXCR family members were used as positive controls to ensure that the cells were expressing the receptors. Cells were washed twice in 200 μL of FACS buffer followed by centrifugation at 400 g for 5 mins at 4° C. Before sample acquisition, cells were resuspended in 100 μL of FACS buffer. Samples were acquired using the high throughput sampler on a FACSCanto™ II cytometer (Beckton-Dickinson).
Binding of BKO-4A8 and variants thereof was detected by incubation of fluorochrome-conjugate anti-human IgG light chain lambda antibody. The binding activity of antibodies tested, quantified as mean fluorescent intensity, was independent of the antibody Fc region as illustrated in FIG. 9.

native cynomolgus CXCR2 expressed by cynomolgus neutrophils, sequence (as listed by the source): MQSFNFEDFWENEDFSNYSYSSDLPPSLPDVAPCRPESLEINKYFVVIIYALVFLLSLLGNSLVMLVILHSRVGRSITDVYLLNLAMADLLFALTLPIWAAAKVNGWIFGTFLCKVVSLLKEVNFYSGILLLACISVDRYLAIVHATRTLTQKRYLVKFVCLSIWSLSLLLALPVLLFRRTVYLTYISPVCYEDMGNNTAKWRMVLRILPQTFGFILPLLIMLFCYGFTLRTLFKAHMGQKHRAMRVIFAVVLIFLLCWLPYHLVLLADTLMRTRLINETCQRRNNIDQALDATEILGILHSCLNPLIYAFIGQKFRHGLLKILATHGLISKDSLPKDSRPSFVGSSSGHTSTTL

binding to native human CXCR2 on human PBMCs / neutrophils [2]	Fold change in binding relative to BKO-4A8 (Human CXCR2)	Molecule	binding to native cynomolgus CXCR2 on cynomolgus PBMCs / neutrophils [1]	also measured
high binding activity		BKO-8G3_b: recombinant, VH SEQ ID NO: 41, VL SEQ ID NO: 42 (antibody, V domains shown, BKO_8G3_H4_D04_VH; BKO_8G3_L1_G01_VL) VH: EVQLLESGGGLVQPGGSLRLSCAASGFTFSSYAMSWVRQAPGKGLEWVSAITGSGGSTYYADSVKGRFTISRDKSKNTLYLQMNSLRAEDTAVYYCAIRLGYWGQGSLVTVSS VL: QSALTQPPSASGSPGQSVTISCTGTSSDVGGYNYVSWYQQHPGKVPKLVIYEVSKRPSGVPDRFSGSKSGNTASLTVSGLQAEDEADYYCSSYAGSNNFGVFGGGTKLTVL	high binding activity	
substantial levels of binding		BKO-9C3_a: recombinant, VH SEQ ID NO: 49, VL SEQ ID NO: 50 (antibody, V domains shown, BKO_9C3_H8_G08_VH; BKO_9C3_L1_F01_VL) VH: EVQVLESGGGLVQPGGSLRLSCAASGFTFRSYAMSWVRQAPGKGLEWVSAISGSGGSTYYADSVKGRFTISRDKSKNTLYLQMNSLRAEDTAVYYCAIQLGYWGQGTLVTVSS VL: QSALTQPPSASGSPGQSVIISCTGTSSDVGGYNYVSWYQQHPGKVPKLMIYEVSKRPSGVPDRFSGSKSGNTASLTVSGLQAEDEADYYCTSYAGSNNFGVFGGGTKLTVL	above average levels of binding	

Continued, molecule first:

Molecule	binding to native human CXCR2 on human PBMCs / neutrophils [2]	Fold change in binding relative to BKO-4A8 (Human CXCR2)	binding to native cynomolgus CXCR2 on cynomolgus PBMCs / neutrophils [1]	also measured
106c: VH SEQ ID NO: 166, VL SEQ ID NO: 110 (antibody, V domains shown, 4A8 VH Variant 106 M34Q_A40P_R53S_R55G_N56S_ R75K_M96E; 4A8 VL variant c D41G_N52S_N94S) VH: EVQLLESGGGLVQPGGSLRLSCAASGFTFSSSTQSWVRQPPGKGLEWVSAISGSGGSTYYADSVKGRFTISRDNSKNTLYLQMNSLRAEDTAVYYCAIQEGYWGQGILVTVSS VL: QSALTQPPSASGSPGQSVTISCIGTSSDVGGYNYVSWYQQHPGKAPKLMIYEVSKRPSGVPDRFSGSKSGNTASLTVSGLQAEDEADYYCSSYAGSNNFGVFGGGTKLTVL				CXCR2 binding activity versus parental BKO-4A8 (Human CXCR2; combinatorial variants with light chain c): reduced
V97A: BKO-4A8 point variant, VL SEQ ID NO: 96 (antibody, V domains shown, VH not cited; 4A8 VL V97A) VL: QSALTQPPSASGSPGQSVTISCIGTSSDVGGYNYVSWYQQHPDKAPKLMIYEVNKRPSGVPDRFSGSKSGNTASLTVSGLQAEDEADYYCSSYAGNNNFGAFGGGTKLTVL		1.7		
Y91A: BKO-4A8 point variant, VL SEQ ID NO: 83 (antibody, V domains shown, VH not cited; 4A8 VL Y91A) VL: QSALTQPPSASGSPGQSVTISCIGTSSDVGGYNYVSWYQQHPDKAPKLMIYEVNKRPSGVPDRFSGSKSGNTASLTVSGLQAEDEADYYCSSAAGNNNFGVFGGGTKLTVL		1.7		
V97K: BKO-4A8 point variant, VL SEQ ID NO: 97 (antibody, V domains shown, VH not cited; 4A8 VL V97K) VL: QSALTQPPSASGSPGQSVTISCIGTSSDVGGYNYVSWYQQHPDKAPKLMIYEVNKRPSGVPDRFSGSKSGNTASLTVSGLQAEDEADYYCSSYAGNNNFGKFGGGTKLTVL		1.0		
